Several values for one entry are separate records, joined by “and”; a condition that tells them apart may be missing. Equal values may be shown once. Non-standard residues stand in square brackets, D forms with d. No end group written: not given here. NMeI = CC[C@H](C)[C@H](NC)C(=O)O; hArg = N=C(N)NCCCC[C@H](N)C(=O)O
T1: Nat1 (LTIITLE) (also: TFA salt)
T1 peptide: LTIITLE


Biological target: T1, Nat1 (LTIITLE)
Assay: cell-based or functional assay

Row | IC50, Thiofiavin T aggregation assay | Binder
1 | 301 nM | [dS][dW][dR][dW][dH][dH][dR] [swrwhhr]
2 | 244 nM | [dR][dF][dY][dR][dH][dH][dR] [rfyrhhr]
3 | 51 nM | [dR][dF][dH][dY][dF][dR][dK] [rfhyfrk]
4 | 247 nM | [dW][dW][dR][dR][dH][dH][dR] [wwrrhhr]
5 | 245 nM | [dF][dW][dR][dW][dH][dA][dR] [fwrwhar]
6 | 472 nM | [dW][dW][dR][dF][dH][dW][dR] [wwrfhwr]
7 | 264 nM and 161 nM | [dF][dW][dR][dH][dK][dH][dR] [fwrhkhr]
8 | 43 nM | [dH][dW][dR][dW][dL][dR][dR] [hwrwlrr]
9 | 420 nM | WTRIYYH
10 | 458 nM | [dF][dW][dR][dW][dH][dA][dA] [fwrwhaa]
11 | 293 nM | [dF][dW][dR][dA][dH][dR][dR] [fwrahrr]
12 | 338 nM | [dY][dW][dQ][dW][dR][dQ][dS] [ywqwrqs]
13 | 49 nM | [dR][dW][dR][dY][dL][dR][dR] [rwrylrr]
14 | 287 nM | WYIRTYH
15 | 494 nM | YYIRYYK
16 | 240 nM | WTRIYLH
17 | 267 nM | [dA][dW][dR][dW][dH][dR][dR] [awrwhrr]
18 | 245 nM | [dK][dR][dW][dR][dH][dQ][dR] [krwrhqr]
19 | 296 nM | [dR][dQ][dH][dY][dH][dW][dR] [rqhyhwr]
20 | 252 nM | [dK][dQ][dW][dY][dH][dW][dR] [kqwyhwr]
21 | 288 nM | WYIRLWH
22 | 369 nM | WYIRLTH
23 | 262 nM | WYIRLWK
24 | 239 nM | [dF][dW][dA][dW][dH][dR][dR] [fwawhrr]
25 | 338 nM | [dS][dH][dW][dR][dR][dH][dR] [shwrrhr]
26 | 245 nM | [dH][dW][dR][dW][dR][dW][dR] [hwrwrwr]
27 | 354 nM | [dY][dQ][dW][dQ][dY][dQ][dR] [yqwqyqr]
28 | 287 nM | [dF][dA][dR][dW][dH][dR][dR] [farwhrr]
29 | 236 nM | [dR][dQ][dM][dQ][dY][dR][dR] [rqmqyrr]

Continued, binder first:

Row | Binder | IC50, Thiofiavin T aggregation assay
30 | LLIAYHR | 466 nM
31 | LLIKYAR | 301 nM
32 | IRIRRAA | 248 nM
33 | LTIRLTH | 329 nM
34 | IRIRAAR | 451 nM
35 | LTIRTWH | 295 nM
36 | WTKITLH | 427 nM
37 | LYIRHK | 316 nM
38 | IRIRRYA | 44 nM
39 | LLIKYHA | 234 nM
40 | I[hArg]I[hArg]RWR [Ile-homoArg-Ile-homoArg-Arg-Trp-Arg] | 49 nM
41 | LRIRHVK | 246 nM
42 | WTRILWH | 398 nM
43 | LLIKYHR | 248 nM and 489 nM
44 | ALIKYHR | 629 nM
45 | IRVYKYS | 480 nM
46 | LR[NMeI]KYHR [LR(N-Me)IKYHR] | 334 nM
47 | IQIYRYK | 444 nM
48 | RLYIRLS | 284 nM
49 | LTIQLWH | 481 nM

Row | Binder | IC50, Thiofiavin T aggregation assay
50 | LTIMLWH | 425 nM
51 | LFIYYQR | 440 nM
52 | IRIRHYR | 14 nM
53 | LYIRTWH | 302 nM
54 | LHIEHR | 657 nM
55 | LFIFYHR | 476 nM
56 | IRFRRYR | 496 nM
57 | LLIKAHR | 258 nM
58 | LYIRTYH | 257 nM and 463 nM
59 | TLIIYHR | 357 nM
60 | IYIYHQR | 269 nM
61 | IRIYRYK | 60 nM
62 | LYIFRHT | 363 nM
63 | TYIRYLR | 412 nM
64 | WTIMLWH | 525 nM
65 | LTIRTLH | 537 nM
66 | LTIKLWH | 260 nM and 232 nM
67 | WRIRRYR | 514 nM
68 | WTIRYYH | 473 nM and 214 nM
69 | IRIARYR | 44 nM
